Laboratory results published in patent US20030082175A1 (Biogen, published 2003).

B1: FLAG-human APRIL (ligand)
chain: DYKDDDDKGPGQVQLQKQKKQHSVLHLVPINATSKDDSDVTEVMWQPALRRGRGLQAQGYGVRIQDAGVYLLYSQVLFQDVTFTMGQVVSREGQGRQETLFRCIRSMPSHPDRAYNSCYSAGVFHLHQGDILSVIIPRARAKLNLSPHGTFLGFVKL
notes: Made from plasmid ps429 (p1448) in 293T cells; also called FLAG-hAPRIL; FLAG-h APRIL
B2: hTRAIN-Fc (Fc fusion, human, UniProt Q9NS68 30-170, looked up)
chain: ESGDCRQQEFRDRSGNCVPCNQCGPGMELSKECGFGYGEDAQCVTCRLHRFKEDWGFQKCKPCLDCAVVNRFQKANCSATSDAICGDCLPGFYRKTKLVGFQDMECVPCGDPPPPYEPHCASKVNLVKIASTASSPRDTAL
notes: not shown: Fc part

Legend:
hCD40-Fc = biological target: T1, hCD40-Fc (human, UniProt P25942 21-193, limits assumed); assay: ELISA, receptor-Fc coated, FLAG-tagged ligand detected with anti-FLAG M2
T1 construct: not shown: Fc part
T1 sequence (P25942 21-193 limits assumed): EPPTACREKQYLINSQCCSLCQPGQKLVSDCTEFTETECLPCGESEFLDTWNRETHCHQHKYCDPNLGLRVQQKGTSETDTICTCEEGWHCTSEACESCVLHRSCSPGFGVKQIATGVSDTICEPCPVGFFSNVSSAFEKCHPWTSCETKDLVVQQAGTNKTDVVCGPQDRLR

FLAG-hBAFF = biological target: T2, FLAG-hBAFF (human, UniProt Q9Y275 136-285, limits assumed); assay: immunoprecipitation from conditioned media with ProtG-Sepharose, anti-FLAG M2 blot
T2 construct: also called hKayL-440 (hBAFF); hKayL-440; not shown: FLAG tag
T2 sequence (Q9Y275 136-285 limits assumed): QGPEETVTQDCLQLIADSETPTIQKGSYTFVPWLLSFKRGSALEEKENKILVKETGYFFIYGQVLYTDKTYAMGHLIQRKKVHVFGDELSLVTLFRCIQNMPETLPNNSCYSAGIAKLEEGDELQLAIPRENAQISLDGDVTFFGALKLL
Procedure: (§1) Immunoprecipitation experiments: 293T cells were transfected with indicated expression plasmid (Rec-Fc or flag ligand) in 9 cm plate. Transfected cells were left for 5d in 8 ml Optimem media (Gibco-BRL). Immunoprecipitation were performed by mixing 200 ul of each receptor-conditioned media with 200 ul of each ligand-conditioned media+400 ul PBS+10 ul ProtG-Sepharose. These were rotated 1 h on a wheel, washed 4× with 1 ml PBS, then boiled in 50 ul sample buffer (+DTT). 20 ul of each immunoprecipitation was loaded per lane. Reveal blotting was done with 1 ug/ml anti-FLAG M2 mAb (Sigma, St Louis Mo.) and anti-mouse PO (1/2000). A reprobe blot with anti-human-PO was also checked: 100 ul conditioned media was precipitated with MeOH/CHC13/lysozyme. This mix was boiled in 50 ul sample buffer (+DTT) and 20 ul was loaded. A Reveal blot was performed with anti-FLAG mAb M2 (1 ug/ml) and anti-mouse-PO (1/2000).

FLAG-human APRIL = biological target: B1; assay: as above
Procedure: as §1

| binding result (hCD40-Fc) | binding result (FLAG-hBAFF) | binding result (FLAG-human APRIL) | Binder |
| --- | --- | --- | --- |
| no binding |  |  | B1 |
|  | no binding | no binding | B2 |
